Data taken from the supplement of paper PMC12455559.
± gives the standard deviation of the averaged measurements.

Experiments:
[1] = melting temperature (DSF); higher = more thermostable
Method in brief: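 Enzymes made in E. coli C41(DE3) were nickel-bead purified and cut free with SUMO protease before testing. Differential scanning fluorimetry gave each melting temperature. For this, 5 μL 5X Sypro Orange was added to 45 μL enzyme (0 to 0.3 mg/mL) in sealed PCR plates, and a Bio-Rad CFX96 read fluorescence from 25 °C over 250 cycles of 0.3 °C each, ramping at 0.3 °C/s.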

[2] = PET hydrolysis, aromatic products released after 48 h (umol product/mg enzyme); higher = more PET depolymerization activity
Method in brief: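 PET hydrolysis activity was taken as the aromatic product in the supernatant and expressed per mg enzyme. This product was measured by absorbance at 260 and 280 nm against buffer blanks. Each reaction held 5 μg (50 μL) of tagless, SUMO-cleaved candidate enzyme purified on nickel beads, plus 3.5 mg amorphous PET film or crystalline PET powder in 450 μL buffer: 50 mM NaCitrate (pH 4.5, 5.5), 50 mM NaPhosphate (pH 6.5, 7.5) or glycine (pH 8.5). Plates were sealed and left 48 h at 40 or 60 °C without shaking.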

[3] = purified protein yield per well (BCA); higher = higher soluble expression
Method in brief: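 Values under 25 ug (0.1 mg/mL) are below the detection threshold. Purified protein yield per well was quantified with the Pierce Rapid Gold BCA kit after candidate enzymes, expressed in E. coli C41(DE3), were captured on Ni-charged magnetic beads and released by SUMO protease on an OT-2 robot. Cultures were 2 mL autoinduction with 100 µg/mL kanamycin, run 2 h at 37 °C and then 40 h at 18 °C.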

[4] = substrate: aFilm, 40 °C, pH 4.5
[5] = substrate: aFilm, 40 °C, pH 5.5
[6] = substrate: aFilm, 40 °C, pH 6.5
[7] = substrate: aFilm, 40 °C, pH 7.5
[8] = substrate: aFilm, 60 °C, pH 4.5
[9] = substrate: aFilm, 60 °C, pH 5.5
[10] = substrate: aFilm, 60 °C, pH 6.5
[11] = substrate: aFilm, 60 °C, pH 7.5
[12] = substrate: cryPow, 40 °C, pH 4.5
[13] = substrate: cryPow, 40 °C, pH 5.5
[14] = substrate: cryPow, 40 °C, pH 6.5
[15] = substrate: cryPow, 40 °C, pH 7.5
[16] = substrate: cryPow, 60 °C, pH 4.5
[17] = substrate: cryPow, 60 °C, pH 5.5
[18] = substrate: cryPow, 60 °C, pH 6.5
[19] = substrate: cryPow, 60 °C, pH 7.5

Row | Sequence | melting temperature [1] [C] | PET hydrolysis [2, 4] | PET hydrolysis [2, 5] | PET hydrolysis [2, 6] | PET hydrolysis [2, 7] | PET hydrolysis [2, 8] | PET hydrolysis [2, 9] | PET hydrolysis [2, 10] | PET hydrolysis [2, 11] | PET hydrolysis [2, 12] | PET hydrolysis [2, 13] | PET hydrolysis [2, 14] | PET hydrolysis [2, 15] | PET hydrolysis [2, 16] | PET hydrolysis [2, 17] | PET hydrolysis [2, 18] | PET hydrolysis [2, 19] | purified protein yield per well [3] [µg] | PET hydrolysis ([2]; substrate: aFilm, 40 °C, pH 8.5) | PET hydrolysis ([2]; substrate: aFilm, 60 °C, pH 8.5) | PET hydrolysis ([2]; substrate: cryPow, 40 °C, pH 8.5) | PET hydrolysis ([2]; substrate: cryPow, 60 °C, pH 8.5)
1 | DSPYQRGPDPTLASVAATRGPFATTQATVPAGNGFNGGFVYYPTDTSLGTWGAVAIVPGYSALFANEEAWMGPWLASFGFVVLGIETNSRTDGADARATQLLAGLDYLTRTSPVRSRVDANRLGVMGHSAGGAGTLLAALRRPSLKTAVGLAPGTPGNNLNMSTTQVPTLLLSGQNDGTVTPSYVQGIYNTLPATVEHAWAELAGNDHLSFTRSNPTEMRLLIPWLKIFLDSDTRYTQFLCPLADSTGVSRYSSTCPLVPSGGPTPPPTTTPPPPTTTPPPTSTPPPPTTTPPPTTPPAGTACTATYRTVNSWSGGFQAEVTVTAGSTATDGWTVRWNLGAGQSVSQVWNGTLSTSGTTATVRNAAYNGTLAPGTSTTFGFLGSGTPSSPSPTCTSP [ESM011] | 62.2 | < 3 | < 3 | < 3 | < 3 | < 3 | < 3 | < 3 | < 3 | < 3 | < 3 | < 3 | < 3 | < 3 | < 3 | < 3 | < 3 | 240 | – | – | – | –
2 | DVNPFQRGPDPTAAGVAAARGPFATAQVTVPAGNGFGGGVVYYPTDTSQGTFGAIAIAPGYGTAWSYYAWQGPRLASFGFVVIGIETNTLNDYADARAAQLLAALDWLVTSSPVRDRVDRNRLAVGGHSMGGGGALLAAIQRPSLMTAIGMAPYVPGGDLSGIRIPTVLFAGQTDGTVTPSYALSAYTTIPGSVERAYVEIANEGHGFPAGGGGGNSGAFARTEMIWMKLFIDKDTRYAPFLCPSLSNMNGISRYQASCPLDPPGGTTPTPSATPTSSPTSTPTSTPSATSALRGAGSSRCLDVPGASQTNGTQLQIWDCNGQANQRWTSTSAGELRVYGGKCLDVNGAGTADGTSVIIWDCNGQNNQKWRLNSDGSITAVGANKCLDVSGAGTANGTKVQIWTCNGQANQRWTRT [ESM026] | 65.8 | < 3 | < 3 | < 3 | < 3 | < 3 | < 3 | < 3 | < 3 | < 3 | 4.5 ± 0.71 | 8.5 ± 0.71 | 9.5 ± 0.71 | < 3 | < 3 | < 3 | < 3 | 305 | – | – | – | –
3 | EEPASGYQRGPAPTTSSIESSRGPFSTSQVSISGLSANGFGGADVYYPTDTSQGTFGAVAISPGYTARKSSMAWLASRLASQGFVVINIDTNTTSDQPASRGRQLLAALDQVTKDSRVANRIDPTRLAVVGHSMGGGGALEASRSRPSLQAAIPLTPWNTTKSFSGNQVPTLVVGAERDTVASVRSHAEPFYRSLPSAPGKAYLELAGASHFAPNTSNTTIAKHSIAWLKLFVDNDERYRQFVCPGPTSDRAVSDYQNTCSSFTP [DP053] | 42.7 | – | < 3 | < 3 | < 3 | – | < 3 | < 3 | < 3 | – | < 3 | < 3 | < 3 | – | < 3 | < 3 | < 3 | 235 | < 3 | < 3 | < 3 | < 3
4 | ENAIINGTYSLIVTQSGKALDTSQWGTIDGTNITLNDYWGGESQKFIITPVDGIWHRITPVIAPDQAFDVSKCSPNVGANIQTWSYEGGACQQFRFAETGNGTYQIITRGTDMSLNVNNLSEENDTNVMQSTSTGKENQIFTLRRHAESHISGNCPDGAICRDEEAPGLYDGKGPYNVRSYELPGAYVTLPATARVYYPANAEPPYSGIVFCPPFMTKQIAFAAWGPWFASHGMVLVTMDTTTIFDQVTARDNQQWRVVKALRRENTRLGSPLRGKLDTDKIGIMGWSMGGGASWINAGKHRDELKTVISLAGHNMTAWYNTDIYSWYSPEELLDAAYASGRLIKIPALIINGALDTTILGGLGQSDGVYRSISNTPKVLAVLGLAGHFAWGYPTQAGRGVASLVLAFEKTFLDGDTRWAPYIQKPSAPMRKWRTADLP [TEP050] | 46.3 | – | – | – | – | – | – | – | – | < 3 | < 3 | < 3 | < 3 | < 3 | < 3 | < 3 | < 3 | 60.6 | – | – | – | –
5 | ETEYRKGPDPTEATVTAALGPFATASVSVPSSVAGFGGGVIHYPTDTSQGTFGAVAVAPGFLGSSANYAWMGPRLASQGFVVFLINTDSRLDQPPSRGDQLLAALDYLVTSSSVRARIDASRLAVAGHSMGGGGTLEAATDRPGLQAAIPLQPWHTVKSWPNVQVPTLIIGAENDTTAPVASHAEPFYVSIPAAAEKAYLELNNAEHRVGTAGDTTQAKFMIVWLKRYVDNDTRYEQFICPPPPAPSSEIQEYRNTCPG [TEP171] | 44.2 | – | – | – | – | – | – | – | – | < 3 | < 3 | < 3 | < 3 | < 3 | < 3 | < 3 | < 3 | 59.3 | – | – | – | –
